From PMC5216124, “Cell division orientation is coupled to cell–cell adhesion by the E-cadherin/LGN complex” (Nature Communications, 2017)

Target: T1, LGN-TPR:S-tag (human, UniProt P81274 8-311)
T1 construct: LGN, human, NM_013296.4, TPR repeats, amino acids 8-311; also called LGN-TPR with C-terminal S-tag; not shown: S-tag, C-terminal, kept
T1 sequence (looked up): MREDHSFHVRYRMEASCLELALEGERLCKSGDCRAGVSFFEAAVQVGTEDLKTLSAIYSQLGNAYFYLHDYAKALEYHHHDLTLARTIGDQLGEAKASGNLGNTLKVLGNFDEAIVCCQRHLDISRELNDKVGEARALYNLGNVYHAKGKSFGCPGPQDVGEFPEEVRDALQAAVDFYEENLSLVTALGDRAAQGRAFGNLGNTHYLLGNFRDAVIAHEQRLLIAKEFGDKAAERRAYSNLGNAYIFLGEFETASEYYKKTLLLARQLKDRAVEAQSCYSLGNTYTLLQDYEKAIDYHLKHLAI
Assay: pull-down; in vitro competition: E-cad-cyto/LGN-TPR:S-tag complex (GST cleaved off with TEV) held on S-protein agarose by the S-tag; 100 μg NuMA (1808-1988) added, 4 °C overnight; blotted for LGN and E-cadherin
Settings: both partners purified

binding result: binds
B1: region of human NuMA containing the LGN-binding site (domain or fragment, UniProt Q14980-1 1808-1988, looked up)
chain: RRRTTQIINITMTKKLDVEEPDSANSSFYSTRSAPASQASLRATSSTQSLARLGSPDYGNSALLSLPGYRPTTRSSARRSQAGVSSGAPPGRNSFYMGTCQDEPEQLDDWNRIAELQQRNRVCPPHLKTCYPLESRPSLSLGTITDEEMKTGDPQETLRRASMQPIQIAEGTGITTRQQRK
notes: also called NuMA peptide; source: E. coli BL21 (DE3), purified (glutathione agarose, TEV cleavage, MonoQ)
